Laboratory results taken from US20040106557A1 (LICENTIA, published 2004).

T1: GST-C-4 (peptide C-4 expressed as glutathione S-transferase fusion protein)
T1 chain: CVAYCIEHHCWTC

B1: GST-A-1 (peptide A-1 expressed as glutathione S-transferase fusion protein) (other)
chain: CVFTSDYAFC
B2: GST-B-2 (peptide B-2 expressed as glutathione S-transferase fusion protein) (other)
chain: CVFAHNYDYLVC
B3: Prostate specific antigen (PSA), purified from human seminal fluid (enzyme)
chain: not shown
notes: mature; Mostly captured on wells by MAb 5E4 (IFMA) or on the chip by MAb H117 (SPR); in solution in enzyme assays; also called free PSA; active PSA

What was measured:
[1] = molecular target: B3; assay: SPR, PSA captured by MAb H117, 1 µM Zn2+
[2] = molecular target: B3; assay: cell-based or functional assay
[3] = molecular target: B3; assay: SPR, GST-peptide injected over PSA captured by MAb H117; average of 3 concentrations
[4] = molecular target: B3; assay: SPR, PSA captured by MAb H117, 1 µM Zn2+, single fit, 3.4 µM peptide
[5] = molecular target: B3; assay: SPR, PSA captured by MAb H117, 30 µM Zn2+
[6] = molecular target: B3; assay: SPR, PSA captured by MAb H117, 10 µM Zn2+
[7] = molecular target: B3; assay: GST-peptide IFMA, PSA captured by MAb 5E4, Eu-labelled anti GST tracer
[8] = molecular target: B3; assay: cell-based or functional assay; remark: listed apart in the source
[9] = molecular target: B3; assay: SPR, PSA captured by MAb H117, 10 µM Zn2+, single fit, 3.4 µM peptide
[10] = molecular target: B3; assay: SPR, PSA captured by MAb H117, 30 µM Zn2+, single fit, 3.4 µM peptide
[11] = molecular target: B3; assay: SPR, PSA captured by MAb H117, 0 µM Zn2+, average of 3 fits (3.4-8.5 µM analyte)
[12] = molecular target: B1; assay: competition IFMA: GST-peptide (167 nM) preincubated with PSA in solution, then binding to PSA captured by MAb 5E4
Description: (§1) Various amounts of GST-peptide or wild type GST were added to wells containing captured PSA in 200 μL of assay buffer and incubated for 1 h. To test the effect of Zn²⁺ on the binding between GST-peptide and PSA, various concentrations of Zn²⁺ (1-200 μM) were added to the buffer in the incubation step of GST-peptide and PSA. […] After incubation for 1 h the wells were washed and Eu³⁺-labeled anti GST antibody was added. After further incubation and washing the bound fluorescence was measured as described above. When assessing the binding of the GST-peptides to other proteinases, including chymotrypsin, cathepsin G, trypsin, and kallikrein, these proteinases were captured by their specific antibodies coated to the microtitration well. Recombinant hK2 was captured by MAb 5E4, which is known to bind hK2 (24). For assessing the binding of the GST-peptides with complexes of PSA, including PSA-ACT and PSA-α1-protease inhibitor (PSA-API) (28), the complexes were captured by antibodies against ACT and API, respectively. After capturing the various proteinases or PSA complexes, GST-peptide was added and binding was monitored as described above for the GST-peptide IFMA.
(§2) In this connection, we refer also to FIG. 3. GST-C-4 was preincubated with increasing concentrations of PSA in solution for 1 h. Then the samples of the mixtures were added to wells in which PSA had been captured by anti PSA MAb. The binding was measured by IFMA. Data represent mean values from duplicate wells ±SE. The corresponding values for the peptides A-1 (SEQ ID NO 1) and B-2 (SEQ ID NO 6) were 3.3 nM and 1 nM, respectively (data not shown). Preincubation of the GST-peptides with an excess of free PSA inhibited binding to the solid phase PSA. The binding of peptide C-4 (SEQ ID NO 11) to captured PSA was reduced by 50% at a PSA concentration of 0.7 nM.

[13] = molecular target: B2; assay: as above
Description: as §1, §2

[14] = molecular target: T1, GST-C-4 (peptide C-4 expressed as …); assay: as above
Description: as §1, §2

50% stimulation [2]	Kd [3]	koff [3]	kon [3]	Kd [4]	koff [4]	increase (fold) of affinity against 0 µM Zn2+ [5]	increase (fold) of affinity against 0 µM Zn2+ [6]	Maximal binding (CPS) [7]	minimum peptide concentration affecting the activity [8]	Kd [9]	koff [9]	kon [9]	Kd [10]	koff [10]	kon [10]	Kd [11]	koff [11]	kon [11]	Binder	further results
2.2 µM	7800 nM	0.08 s⁻¹	10300 M⁻¹ s⁻¹	2600 nM	0.0047 s⁻¹	7.7 fold	5.9 fold	219000 CPS	300 nM	1400 nM	0.0016 s⁻¹	1200 M⁻¹ s⁻¹	1000 nM	0.002 s⁻¹	1900 M⁻¹ s⁻¹	7800 nM	0.08 s⁻¹	10300 M⁻¹ s⁻¹	B1	increase (fold) of affinity against 0 µM Zn2+ [1]: 3 fold; kon [4]: 1800 M⁻¹ s⁻¹
1.7 µM	3500 nM	0.057 s⁻¹	16300 M⁻¹ s⁻¹	3100 nM	0.0035 s⁻¹	4.7 fold	6 fold	428000 CPS	300 nM	600 nM	0.0016 s⁻¹	2650 M⁻¹ s⁻¹	800 nM	0.0006 s⁻¹	830 M⁻¹ s⁻¹	3500 nM	0.057 s⁻¹	16300 M⁻¹ s⁻¹	B2	–
–	–	–	–	–	–	–	–	–	–	–	–	–	–	–	–	–	–	–	B3	IC50 [12]: 3.3 nM; IC50 [13]: 1 nM; IC50 [14]: 0.7 nM
